Measurements published in the Immune Epitope Database (IEDB).

Columns and labels:
HLA-B*58:01 = assay: IEDB peptide-MHC binding, purified MHC/direct/fluorescence; filed as Kd, often an IC50 or EC50 that approximates it; ≥ and ≤ were set here for values at or beyond the usual limits of such assays; conditions: source organism: Haemophilus influenzae
HLA-A*01:01 [1] = assay: as above; conditions: source organism: Haemophilus influenzae
HLA-A*26:01 = assay: as above; conditions: source organism: Haemophilus influenzae
HLA-B*35:01 = assay: as above; conditions: source organism: Haemophilus influenzae
HLA-B*27:05 = assay: as above; conditions: source organism: Haemophilus influenzae
HLA-B*08:01 = assay: as above; conditions: source organism: Haemophilus influenzae
HLA-A*69:01 = assay: as above; conditions: source organism: Haemophilus influenzae
HLA-B*15:01 [2] = assay: as above; conditions: source organism: Haemophilus influenzae
HLA-A*11:01 = assay: as above
HLA-B*40:01 = assay: as above; conditions: source organism: Haemophilus influenzae
HLA-B*07:02 = assay: as above; conditions: source organism: Haemophilus influenzae
HLA-A*31:01 [3] = assay: as above; conditions: source organism: Haemophilus influenzae
HLA-A*02:01 [4] = assay: as above; conditions: source organism: Haemophilus influenzae
HLA-A*03:01 = assay: as above
HLA-A*31:01 [5] = assay: IEDB peptide-MHC binding, purified MHC/competitive/fluorescence; filed as Kd, often an IC50 or EC50 that approximates it; ≥ and ≤ were set here for values at or beyond the usual limits of such assays
HLA-A*01:01 [6] = assay: IEDB peptide-MHC binding, purified MHC/competitive/radioactivity; filed as Kd, often an IC50 or EC50 that approximates it; ≥ and ≤ were set here for values at or beyond the usual limits of such assays; conditions: source organism: Dengue virus 4 Philippines/H241/1956
HLA-A*02:17 = assay: as above
HLA-A*02:06 = assay: as above
HLA-A*02:01 [7] = assay: as above
HLA-B*15:01 [8] = assay: IEDB peptide-MHC binding, purified MHC/competitive/fluorescence; filed as Kd, often an IC50 or EC50 that approximates it; ≥ and ≤ were set here for values at or beyond the usual limits of such assays; conditions: source organism: Escherichia coli O157:H7 str. EDL933
HLA-A*68:02 = assay: IEDB peptide-MHC binding, purified MHC/competitive/radioactivity; filed as Kd, often an IC50 or EC50 that approximates it; ≥ and ≤ were set here for values at or beyond the usual limits of such assays; conditions: source organism: Dengue virus 4 Philippines/H241/1956
HLA-A*02:03 = assay: as above; conditions: source organism: Dengue virus 1 Brazil/97-11/1997
HLA-A*68:01 = assay: as above; conditions: source organism: Lassa virus Josiah
HLA-A*33:01 = assay: as above; conditions: source organism: Lassa virus Josiah
[9] = source organism: Haemophilus influenzae
[10] = source organism: Dengue virus 4 Philippines/H241/1956
[11] = source organism: Dengue virus 1 Singapore/S275/1990
[12] = source organism: Mammarenavirus lassaense

## EIKFNDITF
HLA-B*58:01
  Kd: ≥ 20 µM
HLA-A*01:01 [1]
  Kd: ≥ 20 µM
HLA-A*26:01
  Kd: 0.568 µM
HLA-B*35:01
  Kd: 0.0509 µM
HLA-B*27:05
  Kd: ≥ 20 µM
HLA-B*08:01
  Kd: 2.64 µM
HLA-A*69:01
  Kd: ≥ 20 µM
HLA-B*15:01 [2]
  Kd: ≥ 20 µM
HLA-A*11:01; [9]
  Kd: ≥ 20 µM
HLA-B*40:01
  Kd: ≥ 20 µM
HLA-B*07:02
  Kd: 1.06 µM
HLA-A*31:01 [3]
  Kd: ≥ 20 µM
HLA-A*02:01 [4]
  Kd: ≥ 20 µM
HLA-A*03:01; [9]
  Kd: ≥ 20 µM

## KLRMVTGLR
HLA-A*31:01 [5]; source organism: Influenza A virus (A/Bangkok/10/1983(H1N1))
  Kd: 0.0451 µM
HLA-A*03:01; source organism: Influenza A virus (A/Liaoning/25/2000(H1N1))
  Kd: 0.366 µM

## FIDGISLGL
HLA-A*01:01 [6]
  Kd: 1.52 µM
HLA-A*02:17; [10]
  Kd: 0.0561 µM
HLA-A*02:06; [10]
  Kd: 0.0324 µM
HLA-A*02:01 [7]; [10]
  Kd: 0.0189 µM

## VLIGRRWFR
HLA-B*15:01 [8]
  Kd: ≥ 20 µM
HLA-A*31:01 [5]; source organism: Escherichia coli O157:H7 str. EDL933
  Kd: 0.0017 µM

## MVLAFITFL
HLA-A*02:17; [10]
  Kd: 0.00399 µM
HLA-A*02:06; [10]
  Kd: 0.00345 µM
HLA-A*02:01 [7]; [10]
  Kd: 0.0169 µM
HLA-A*68:02
  Kd: 0.0192 µM

## ILNPYMPSV
HLA-A*02:17; [11]
  Kd: 0.00358 µM
HLA-A*02:06; source organism: Dengue virus 1 Brazil/97-11/1997
  Kd: 0.00498 µM
HLA-A*02:03
  Kd: 0.00198 µM
HLA-A*02:01 [7]; [11]
  Kd: 0.00426 µM

## RTRDIYISR
HLA-A*31:01 [5]; source organism: Lassa virus GA391
  Kd: 0.00475 µM
HLA-A*68:01
  Kd: 0.825 µM
HLA-A*33:01
  Kd: 0.0223 µM
HLA-A*11:01; [12]
  Kd: ≥ 20 µM
HLA-A*03:01; [12]
  Kd: 0.0985 µM
